Experimental data taken from the domain aggregation screens of Martell et al. (2025).

Assay: soluble fraction after stress (log2 fold change); higher = more stays soluble; pooled small domains, quantitative proteomics
Details: stress: pH 4
Outline: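 Aggregation propensity is estimated from the fold change in each domain's soluble amount after acid stress. Pooled small-domain libraries were stressed at pH 4, and higher log2 values mean more stayed soluble.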

Row | Sequence | soluble fraction (log2)
1 | HMLSFSEAERAVLSLLNRRPDLSAKALASELAVSARTVERYLQSLQQKGKLLRVGAKKGGYWQV | 0.115
2 | HMQDIDIVDLKRISELIYQKYNYDFRNYAMSSFKRRVQRIIELKKLTVDGLIKRLNDTPSFINEFLDELTV | -0.2
3 | HMNVGKRLKSLREKYKFSLEEVAKKIKSSAGAISRYENNERKINSESLIRLSNLYNVSPEYILYG | 0.391
4 | HMEQGDTQQEIREKILNLLADGERHMITELKNIRTDQPIDDDKIVGKTLKTLLDEEEVYMDGSYIQLNG | -0.997
5 | HMSFSTHHEYYIYNLAVDMRKGYDGLSGLVVNELGRQPWDGSVYVFFNTMRDKVKLLVWDTDGYVIYSKR | -0.505
6 | HMALPASLSPREREIVSLISQGKTNSEIASLLYISVPTVKTHISNIFQKTGVSNRTSLLNRLRMS | -0.0542
7 | HMLRTEYLTVNYAKASEVAELVTASGFLSSRGSITVDERTNTLLLQDTATNIDEVRFMLEQLD | -0.868
8 | HMEEQGLPLVIISDGKVLAQNLTLRSLDRAWLQDQLTQHGHSKPEQVFLLTVDERGAVYYVPKE | -1.86
9 | HMSKSIEEIYDEAIRSLANEEYDSAKKLFSYLIDNFSDPEKLPLSLFWLGEIEFSSSNFDQSKIHYIE | -1
10 | HMLTRSASREELDQLLKRLRQNLKQKNFFWPPDKEKSLVLYLENLFSKFPLNSSDIRFLHGIIRTLSEK | -0.114
11 | HMEKGIVSNKTDKGYGFIRSSTGESIFVHINNVGKEAYEQLAKGSRVLFDYEVTDRGKRATKVMLEPSES | -0.401
12 | HMDTGKLQSLVGSRGVAHTVLRPSGKVMIGDDVYPAVAETGFIPRGTAIVVRREEQGQLYVVEARK | 0.275
13 | HMEIHIGSLIKEKMEERGLSVSDFAHALHYERTNIYKIFKRSSIDVDLLLRISEVLAYDFLREVYL | -1.9
14 | HMSLSQLGLTPRQTDVLALLLKGQPNKLIARELGLSVETVKDHVAAVLRALNVSSRTQAVIAVSQMLQ | -0.533
15 | HMKVSVDLSMFEDDQTADRNAAVAWVVDELGAGGVDRTILMQLQSTGWSAEQSRAILDLASAGR | -0.324
16 | HMNNYFPAYKGSATSIAPALKQMGVNNSYAYRSKIAAVNNITGYRGTPAQNTQMLNLLKQGRLIK | -0.156
17 | HMAVNDPDEKFIELGIPADWVQVVRKAGFQTVEALKTVENPNKLHQELSGLNKKMKLGLKTLSQDEVKDWF | -0.0206
18 | HMGLDERNLKLFAASLLEQAGKKITESTMTYLLDKTGSDMENIQNEVEKIIGYTMNHTVVTTEDIDAV | -0.745
19 | HMGTSMDPPVIIVSDGKLIQKGLEVSGLKKQWLYDLIDRKHMKISDIFLLTADKTGKYNLIKRS | -0.134
20 | HMGLLGIYPNPVEGGSVRLLSDADLFGSRFELYDQSGKLVLNGFVTEGNFVSVKGISSGLYISVSYT | 0.00514
21 | HMLSAGTTEQRLAMLQYQWEKQSETYSALGPNNGVVTLGQIRNTMAKIAELAGFKDAAQFWMPVPMDYDV | -0.491
22 | HMKTTVEVSPIARPGAVASGSVKFGSGVTAEWMLDQYGRLGLDKPTGKPTEQDIKEFQIELQKAL | 0.122
23 | HMDGMNEELYQKFFALVGNPDEGKRISQAKAAQALGYSSAVVSAYKNRTYNGNIKAFEDAVQAWLKREERR | 0.141
24 | HMSEFGENLKKLRTARDLTQQELGAKVGLSKAVVSKYENGLGYPTFDVLIRIAAYFGVTTDYLLGV | -0.309
25 | HMVNINEVEVSRDLAHAKVFVTFVGDRTDEINTQALKVLNAAQGFLRSRIASNNHMRTTPRIHF | -0.214
26 | HMKVRVFIERSNDGYSAYMPDDNNLPFGLTGDGKTAQEAMQDFLLARDEMKEFFIEEGKEFPEVEFDFS | -1.49
27 | HMTNEAFITPSVLEWAIKRAGVSAESIHKKAEQWVSGKARPTFKQAVDIAKTLQIPFGYLWLKEPPKEQ | -0.442
28 | HMAAGKGVTTGSVRLRKGSNTDSAIIATLKKDTELILYGKKDGWYSVKTSDGTEGFVSSKYVKVTEAY | -0.297

Row | Sequence | soluble fraction (log2)
29 | HMKYPVYLQLADLIERKINKNEYPLGSKIPSERELIDAFGISRMTVRKAIEVLIEKGLLTRQHGKGTYVSQ | 0.182
30 | HMSQSDLASAIGARVTIRLREASGGFRDIVGVLQRFGSGYGELINSKGEALTFSESEIAIWREVKA | 0.361
31 | HMRYEESVTLGERLLNQSLVALKADNIDDALWERFLREEAGEKSRQEILSDIGLGKRLPVVVAKRLLAPS | -0.982
32 | HMDDLIIQIELKQEGLEITGLKVLLKEDSVIDEQVKQTIRRKIERFLVNLYGNPNVYVSKFSMGI | -1.36
33 | HMATETELNLQLMRIIDELHTDHNTWGSRKITDYLRLQGYEINRKRIQRLMDVMDIQVVYPK | -0.00483
34 | HMISIKEAVFPFSRFPGVDTLLGPEMKSTGEVMGLADNFGHAYAKSQIASGSKLPESGTLFVSVKNSD | 0.0851
35 | HMQLTPAQHAILAKAIHSSDGKIEWFPDNVKGGARKKVLEGMFNRALITPDGEGWRIAAEGYDALGMPRP | 0.165
36 | HMIANDDEIRKVVLEVIEEQPKAVEDVKNGRDRILDFLVGQVMKKTRGKANPSLASNLMKEEIEK | -0.11
37 | HMDKDTFGEFENVKLTEEEYNKLVEKLGENNTKLMIEELSTGIASKGYKYKSHYATILSWSRRRVTKLQER | -1.18
38 | HMDSSSYSAKVGTLIQETRQARGMTQAQLAQALGTSQSAINRIEKGGQNISLDMLNRISEVLSSQIVTLNP | -0.255
39 | HMYRYTTFKVKEADTLLPFIQKSLNGISHNRAKAILTGGGVLVDKKITRAYDFALRPGMTVEISKSKP | ≥ 0.43
40 | HMPYSAAVTFLDDAKQPMVNYNYRLIAENGIEVSGITDEFGKTQPIQTDQREKVDLYIADLPN | -0.37
41 | HMSLTTKSVEETLGITRQTLHNWIKEGLLPAPKKDFRNWYIWSDEDLENLRNIIEQKTLINNKKQAV | -0.0603
42 | HMSQDLVVLGDSMLNNALKAFHIDPNAIKKKYWDKLILDYHLKSKEEVLTEIALGKKINVMVAHQLTSIMD | -0.238
43 | HMNIAESIRKYRKASGLTQEEMAKRLGVTTPAVSKWENGITNPDIALLAPIARLFHISVDTLLSYR | 0.0976
44 | HMSWGDVKLTMWGAEEDQTMLREMADAFIEQNADKGNVTIEIGVQSESSAKDTVLADPESAADVFA | -0.106
45 | HMQLVGSSAAVLIPAPAGGLGKIRLEFRGQTIDLIAKATDGGALIEGGAVTIVDVRDGQADVSV | -0.329
46 | HMSEISAEAGKRIRYFRKSRSMTLEELAAVIHKSKATLSKYETGEISIDLDTLYDLAVALQVRAEQLLPAS | -0.764
47 | HMFDEDKLIISIGSKVRIIREPYFGTIGKVVELPPELVKMDTEAMLRVAIIKLDDGEKVTIPRANLEVILS | -0.87
48 | HMDDFSETLLQYIKEKGGHISLNDKTDAGVIYETFGVSKKTFKKAVGDLYKKRLIVLEDTGIRL | 0.0848
49 | HMFAERLKELRKMRRFSQHALAERLGISQQAVGKWETGKSTPDPATLREIADIFEVSVDLLLGR | 0.124
50 | HMASEVEVPNVYGMPSSLAERELSAVGLLADYRSRTGTGQQPGTVVHVKPDAGTVVSRGSTVVLFIA | 0.138
51 | HMDYIGIQAAKEAALKDADISSEQAVFTMAELDNKNNIFYYQIMFTENGTEYRYDIDALTGVIIEKNHFF | -0.0659
52 | HMKEKIIKEPYDLFTTDKIGQALEVQALLARQGIKVQRRVDGTKSTLFLENYTQSEKDQALLAVVRSGIV | 0.167
53 | HMVEPIKAPMPGMVLKILVEPGQQIEKGQGVLILEAMKMENVLKSSAAATVKSIKVSEKSAVEKGAILVEL | -0.261
54 | HMDEARLAVASNLIRLRTDAGMTQAELGEKLNYSDKTISKWERAEAIPDAFVLKQIGELFHVSVDFLLRTH | 0.1
55 | HMALKRVAPQGEDKLSAQLDGVEFDKLIPWLGMLEHDHRIAIVNLSIDRANATGLVNARVIL | 0.251
